Results reported in the nanobody polyreactivity screen of Harvey et al. (2022).

Assay: yeast display, Sf9 membrane polyspecificity reagent, FACS + sequencing; frameworks hold sequencing errors
Method in brief: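 Genes from sorted yeast were amplified by colony PCR, read by MiSeq 2 × 250 sequencing and filtered on CDR length. These cells carried a synthetic nanobody library in Saccharomyces cerevisiae BJ5465 and were sorted by FACS into low and high (top ~1%) gates on anti-HA and streptavidin fluorescence. Polyreactivity is labelled according to the gate of origin.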

Sequence | polyreactivity (PSR sort gate)
QVQLVESGGGLVQAGGSLRLSCAASGSIFAYYAMGWSRQAPGKERELVASIDWSGDLYVRDSVKGRFTISRDNAKNTVYLQMNSLKPEDTAVYYCAADVGFGVVFYDYWGQGTQVTVSS | low polyreactivity
QVQLVESGGGLVQAGGSLRLSCAASGRIFYSYAMGWYRQAPGKERELVAAISFSVGSTYYADSVKGRFTISRDNAKYTVYLQMNSLKPEDTAVYYCAASLGFPGYEYWGQGTQVTVSS | low polyreactivity
QVQLVESGGGLVQAGGSLRLSCAASGRTFLRYTMGWYRQAPGKERELVASITRGGSTYYADSVKGRFTISRDNAKNTVYLQMNSLKPEDTAVYYCAVDVYGSHYYTGSLGKPDGYWGQGTQVTVSS | high polyreactivity
QVQLVESGGGLVQAGGSLRLSCAASGSTFVPNAMGWYRQAPGKERELVAAITSGGITNYADSVQGRFTISRDNAKNTVYLQMNSLKPEDTAVYYCAVLYYILAPGYDYWGQGTQVTVSS | low polyreactivity
QVQLVESGGGLVQAGGSLRLSCAASGSTFDIYPMGWYRQAPGKERELVAAISWSGGRTYYADSVKGRFTISRDNAKNTVYLQMNSLKPEDTAVYYCAAVNKSGTYVEYDYWGQGTQVTVSS | low polyreactivity
QVQLVESGGGLVQAGGSLRLSCAASGYTFASYTMGWYRQAPGKERELVATISRGGGRTYYADSVKGRFTISRDNAKNTVYLQMNSLKPEDTAVYYCARPSTFYTGYRQAHFDYWGQGTQVTVSS | high polyreactivity
QVHLVESGGGLVQAGGSLRLSCAASGSIFYTNAMGWYSQAPGKERELVAAISYSGGRTYYADSVKGRFTISRDNAKNTVYIQMNSLKPEDTAVFYCNTVLRGGSTEAFDYWGQGTKVTVSS | high polyreactivity
QVQLVESGGGLVQAGGSLRLSCAASGSTFGSNAMGWYRQAPGKERELVAAIDANGGSTYYADSVKGRFTISRDNAKNTVYLQMNSLKPEDTAVYYCAAAGYWYYYVPNDYWGQGTQVTVSS | low polyreactivity
QVQLVESGGGLVQAGGSLRLSCAASGRILYHYAMGWYRQAPGKERELVAAITFSGDTTYYADSVKGRFTISRDNAKNTVYLQMNSLKPVDTAVYYCNTVYYWNYVSRLYDYWGQGTQVTVSS | high polyreactivity
QVQLVESGGGLVQAGGSLRLSCAASGSIFLGYAMGWYRQAPGKERELVAAISWTGGSTYYADSVKGRFTISRDNAKNTVYLQMNSLTPEDTAVYYCAAEDQYGFDYWGQGTQVTVYS | high polyreactivity
QVQLVESGGGLVQAGGSLRLSCAASGFTFTAYAMGLYRKATGKERELVAGISRRGASTYYADSVKGRFTISRDYAKNTVYLQMNSLKPEDTAVYYCAALGKYIVAWSGDYWGQGTQVTVSS | low polyreactivity
QVQLVETGGGLVQAGGSLRLSCAASVIISSVYAMGWYRQAPGNERELVAAISGSGGSTYYADSVKGRFTISRDNAKNTVYLQMISLKPEDTAVYYCAKGYQYQGNSYGYWGQGTQVTVSS | low polyreactivity
QVQHVESGGGLVQAGGSLRLSCAASGRIFWDNASGWYRQAPGKVSELHAAISDSVVITYFADSVKGRFTISRDTAKYTVYLQMNSLKPEDTAFYYCAAHKRCTVYLSSFWMDYWGQGNQVTVSS | low polyreactivity
QVQLVESGGGLVQAGGSLRLSCAASGSSFISNTMGWYRQAPGKERELVAAISSGGDTSYADSVKGRFTISRDNAKNTVYLQMNILKPEDTAVYYCNVDTSATSYSSEYDYWGQGTQVTVSS | low polyreactivity
QVQLVESGGGLVQAGGSLRLSCAASGFIFGRYAMGWYRQAPGKERELVAVITWSGGRTYYADSVKGRFTISRDNAKNTVYLQMNSLKPEDTAVYDCAADRYPYHYGYDYWGQGTQVTVSS | high polyreactivity
QVQLVESGGGLVQAGGSLRLSCAASGSIFDGNAMGWYREAPGKERELVAAISRRAGSTYYADSVKGRFTISRDNAKNTVYLQMNSLNPEDTAVYYCAASLYVPRFSRLGYDYWGQGTHVTVSS | high polyreactivity
QDQLEESGGGIVQAGGSLRLSCAASGSTFQYYAMGWYRQAPGKERELFAAISASVDTKFYADSVKGRFTISRDNAKNTVYLQMNSLKPEDTAFYYCATDWPHWRKVYWFDYWGQGTQVTVSS | low polyreactivity
QVQLVESGGGLVQAGGSLRLSCAASGSIFGRNAMAWYRQAPGKERELVADIWNGGSTYYADSVNGRFTNSRDNAKNTVYFLMNSLKPEDTAVSYCNADADDDGRFGGYMKYDYWGQGTQVTVSS | low polyreactivity
QVQLVESGGGLVQAGGSLRLSCAASGSTFSWYAMGWYRQAPGKERELVATITGSGGSTYYADSVKGRFTISRDNAKNTVYLQMNSLKPEDTAVYYCALDRGYTRWIASHSYQYDYWGQGTQETVSS | low polyreactivity
QVQLVESGGGLVQAGGSLRLSCAASGLSSLRMLWDGRDRRLGKKGSWLPLITSGGDSTNYADSVKGRFTISRDNAKNTVYLQMNSLKPEDTAVYYCAADLDYPYGYWGQGTQVTVSS | low polyreactivity
QVQLVESGGGLVQAGGSLRLSCAASGSTFDGNAMGWYRQAPGKESELVAAISWSGGSTYYADSVKGRFTISRDNAKNSVYLQLNSLKPEDTAVYYCNAVHYPYQHMGSWGQGTQVSVSS | low polyreactivity
QVQLVESGGGLVQAGGSLRLSCAASGRTFRFYDMGWYRQAPGKERELVAAISRGGGSTYYADSVKGRFTISRDNAKNTVYLQMNSLKPEDTAVYYCAAKPYKTRSSYWGDYYWGQGTQVTVSS | high polyreactivity

Sequence | polyreactivity (PSR sort gate)
QVQLVESGGGLVQAGGSLRLSCAASGSIFANYAMGWYRQAPGKERELVAAITFSSGDSTYYADSVKGRFTISRDNAKNTVYLQMNSLKPEDTAVDYCATVTYGWSGYDYWGQGTQVTVSS | low polyreactivity
QVELVASGGGLVQAGGSLRLSCAASGSTFAANAMGWYRQAPGKERELVAAITSGGGSTYYADSVKGRFTISRDNEKITVYLQMNSLKPEDTAVYYCAALQSHGVDYDYWGLGTQVTVSS | low polyreactivity
QVQLVESGGGLVQAGGSLRLSCAASGSSFPGNAMGWYRQAPGKERELVARINDGADTNYADSVKGRFTISRDNAKNTVYLQMNSLKPEDTAVYYCAKPYYDGRTHFDSWGQGTQVTVSS | low polyreactivity
QVQLVESGGGLVQAGGSLRLSCAASGFIFRLNAMGWYTQAPGKERELVATITSSGSTSYADSVKGRFTISRDNAKNTVYLQMNSLKPEDTAVYYCAARRLRYRYPLYSRNYWGQGTQVTVSS | high polyreactivity
QVQLVESGGGLVQAGGSLRLSCAASGRTFKWYAMGWYRQAPGKERELVAGISRGAGRTYYADSVKWRFTISRDNAKNTFYLEMNSLKPEDTAVYYFAASPVRDGKVIDGRDYWGQGTQVTVSS | high polyreactivity
QVQLVESGGGLVQAGGSLRLSCAASGSIFKRNDMGWYRQAPGKERELVASISWGGTSTYYADSVKGRLTISRDLAKNTVYLKMYSLKPEDTAVYYCAARGLYTYKTYDDWGQGTLVTVSS | low polyreactivity
QVQLVESGGGLVQAGGSLRLSCAASGSTFASYAMGWYRQAPGKERELVAAIRWRGGTTYYADSVKGRFTISRDNAKNTVYLQMNSLKPEDTAVYYCNADRYYLYYYWGQGTQVTVSS | low polyreactivity
QVQLVESGGGLVQAGGSLRLSFAASGSIFYRNSMGWYRQAPGKERELVAAISWSGASTYYADSVKGRFTISRDNAKNTVYLQMNSLKPEETAVYYCYAGKYAYLWLKLFDPKLDYWGQGTQVTVSS | low polyreactivity
QVQLVESGGGLVQAGGSHRLSCAASGIIFWYNAMGWYRQAPGKERELVAAISRGGGNTYADSVKGRFTISRDNAKNTVYLQMKSLKPEDTAVYYCAAKRSGYRFNTRWFRLPKYDYWGQGTQVTVSS | low polyreactivity
QVQLVESGGGLVQAGGSLRLSCAASGSIFDVNAMGWYRQAPGKERELVAAITSSGGSTYYADSVKGRFTISRDNAKNTVYLQMNSLKPVDTAVYYCAAYSLYTMYWGQGTQVTVSS | low polyreactivity
QVQLVESGGGLVQAGGSLRLSCAASGSTFVGYAMGWYRQAPGKERELDAALSANVGGTYYADSVKGRFTISRDNAKNTVYLQMNSLKPEVTAVYYCAADYAYNYFWRPGDYWGQGTQVTVSS | low polyreactivity
QVQLVESGGGLVQAGGSLRLSCAASGITFTWYAMGWYRQAPGKERELVAAISGGGSTYYVDSVKGRFTISRDNAKNTVYLQMNSLKPEDTAVYYCAARYSWTRRTMYYWGQGTQVTVSS | high polyreactivity
QVQLVESGGGLVQAGGSLRLRCAASGITFKWYAMGWYRQATGKEREFVAIISTRAGSTYYADSVKGRFTISRDNAKNTVSLQMNSLIPEDSAVYYCNAVRSRGLHRRGDFDYWGQGTQVTVSS | high polyreactivity
QVQLVESGGGLVQAGGSLRLSCAASGIIFRNYAMGWYRQAPGKERELVATITGDGGSTYYADSVKGRFTISRDNAKNTVYLQMNSLKPEDTAVDYCAADRPYAGRYWKGYHSALYDYWGQGTQVTVSS | low polyreactivity
QVQLVESGGGLVQAGGSLRLSCAASGFTFWTYAMGWYRQAPGKERELVAAIDSGGSTYYADSVKGRFTISRDNAKNTVYLQMNSLKPEDTAVYYCNAGPSVTSGYDYDYWGQGTQVTVSS | low polyreactivity
QVQLVESGGGLVQAGGSLRLSCAASGRILSEYPMGWYRQARGKERELVAAITISDGSTYYADSVKGRFTISRDNAKNTVYLQMNSVNPDDTAVYYCAADSYDYNPAYLFCYKYYYWGQGSQVTVSS | low polyreactivity
QVQLVESGGGLGQAGGSLRLSCAASGIIFYPNAMGWYRQAPGKERELVAAISCRSGSTYYADSVKGRITISRDNEKNTVYLQMNSLKPEDTSVYYCAADRRRSYIWRYDYWGQGTQVTVSS | low polyreactivity
QVQLVESGGGLVQAGGSLRLSCAASGLTFKYYAMGWYRQAPGKERELVAAITATGGRTYYADSVKGRFTISRDIAKNTVYLQLNSLNPEDTAVYYCNARQYQTYYFYKHDYWGQGTQVSVSS | high polyreactivity
QDQLVESGGCLVQAGGSLRLSCAASGSISDSKAMGWYRQAPGKERELVAAISNGGSTNYADSVKGRFTISRDNAKNTVYLQMNSLKPEDTAVYYCARDYDIQNHEYDYWGQGTQVTVSS | low polyreactivity
QVQLVESGGGLVQAGGSLRLSCAASGSTFTSYAMGWYRQAPRKERELVAAINYSGGSTYYADSVKGRFTISRDNAKNTVYLQMNSLKPEDTAVYYCAADGYIRQYVTYYYWGQGTQVTVSS | low polyreactivity
QVQHVESGGGLVQAGGSLRLSCAASGSTSPGYAMGWSRQAPGKERELVAAITFRGTRTYYADSVKGRFTISRDNAKNTVYLQMNSQKPEDTAVYYCNVVGYGPNRGRVDYWGQGTQVTVSS | high polyreactivity
